We go through 11 molecules from patent US20230331827A1, “POTASSIUM CHANNEL INHIBITORS” (priority 2017, published 2023).

Substitutions are numbered along the chain they refer to.

B1: KB_A07_HsTx1 (antibody, V domains shown)
VH: EVQLVESGGGLVRPGGSLRLSCAASGFTFSSYAMSWVRQAPGKGLEWVSAISGSGGSTYYADSVKGRFTISRDNTKNSLYLQMTSLRADDTAFYYCVKDFGPGYGTGWFDYWGPGTLVTVSS
VL: DIQMTQSPSSLSASVGDRVTITCRASQSISSYLNWYQQKPGKAPKLLIYAAGVASCRTPKDCADPCRKETGCPYGKCMNRKCKCNRCSRSGVPSRFSGSGSGTDFTLTISSLQPEDFATYYCQQGASPPYTFGQGTKVEIKR
B2: KB_A12_ADWX1: ADWX-1 in VL CDR2 of KB_A12, IgG (antibody, V domains shown)
VH: B1 VH
VL: QSVLTQPPSVSEAPRQRVTITCSGSSSNIGNNAVNWYQQLPGKAPKLLIYAAGRVGINVKCKHSRQCLKPCKDAGMRFGKCTNGKCHCTPKANSGVSDRFSAAKSGTSASLAINGLRSEDEADYYCAAWDDSLNGYVFGTGTKLTVLG
B3: F07: KnotBody with alternative 5-3 framing of EETI-II, VL CDR2 (protein)
chain: QSVLTQPPSVSEAPRQRVTITCSGSSSNIGNNAVNWYQQLPGKAPKLLIYAAGGCGPNGFCGSGSDGGVCPRILMRCKQDSDCLAGCGGQSGVPDRFSGSKSGTSASLAISRLQSEDEADYYCAAWDDSLNAYVFGTGTKVTVLGQP
modifications: F07 (72824)
notes: KnotBody with alternative 5-3 framing of EETI-II, VL CDR2
B4: E05: KnotBody with alternative 5-3 framing of EETI-II, VL CDR2 (protein)
chain: B3 chain with G89A, V93I, D95E, R112G, D120H, A132G
modifications: E05 (118631)
notes: as for B3
B5: E09: KnotBody with alternative 5-3 framing of EETI-II, VL CDR2 (protein)
chain: B3 chain with G89T, V93I, D95E, R112G, Q114R, N131R, K140Q, V141L
modifications: E09 (70274)
notes: as for B3
B6: E08: KnotBody with alternative 5-3 framing of EETI-II, VL CDR2 (protein)
chain: B3 chain with G89I, V93I, D95E, R112G, Q114R, S129N, N131S, A132G, V141L
modifications: E08 (121047)
notes: as for B3
B7: E01: KnotBody with alternative 5-3 framing of EETI-II, VL CDR2 (protein)
chain: B3 chain with G89I, Q90H, P94S, G99D, R112G, A132G, V141L
modifications: E01 (127988)
notes: as for B3
B8: F01: KnotBody with alternative 5-3 framing of EETI-II, VL CDR2 (protein)
chain: DIQMTQSPSSLSASVGDRVTITCRASQSISSYLNWYQQKPGKAPKLLIDAAGECGPNGFCGSGSDGGVCPRINMRCKQDSDCLAGCGRDSGVPSRFSGSGSGTDFTLTISSLQPEDFATYYCQQSYSTPWTFGQGTKVEIKRT
modifications: F01 (101798)
notes: as for B3
B9: C09: KnotBody with alternative 5-3 framing of EETI-II, VL CDR1 (protein)
chain: QSVLTQPPSVSEAPRQRVTITCGGKRCGPNGFCGSGSDGGVCPRILMRCKQDSDCLAGCTSNWYQQKPGQAPVLVVQDDSVRPSGIPERFSGSNSGNTATLTISRVEAGDGADYYCQVWDISSDLGVFGGGTKLTVLGQP
modifications: C09 (9820)
notes: KnotBody with alternative 5-3 framing of EETI-II, VL CDR1
B10: F03: KnotBody with alternative 5-3 framing of EETI-II, VL CDR2 (protein)
chain: QSVLTQPPSVSEAPRQRVTITCSGSSSNIGNNAVNWYQQLPGRAPKLLIYAAGGCGPNGFCGSGGDGGVCPRILMRCKQDSDCLAGCGAHSGIPERFSGSKSGTSASLAISGLRSEDEADYYCAAWDDSLNGWVFGGGTKVTVLGQP
modifications: F03 (67972)
notes: as for B3
B11: E03: KnotBody with alternative 5-3 framing of EETI-II, VL CDR2 (protein)
chain: QSVLTQPPSVSEAPRQRVTITCSGSSSNIGNNAVNWYQQLPGKAPKLLIYAAGGCGPNGFCGSGSDGGVCPRILMRCKQDSDCLAGCGRNSGIPERFSGSKSGHTATLTISRVEAGDEADYYCQVWDSSSDHVLFGGGTKLTVLGQP
modifications: E03 (82495)
notes: as for B3

The target of the first assay is T1, human Kv1.3 (huKv1.3) (Homo sapiens, UniProt P22001).
T1 construct: host or cells: CHO
T1 sequence (P22001 whole entry): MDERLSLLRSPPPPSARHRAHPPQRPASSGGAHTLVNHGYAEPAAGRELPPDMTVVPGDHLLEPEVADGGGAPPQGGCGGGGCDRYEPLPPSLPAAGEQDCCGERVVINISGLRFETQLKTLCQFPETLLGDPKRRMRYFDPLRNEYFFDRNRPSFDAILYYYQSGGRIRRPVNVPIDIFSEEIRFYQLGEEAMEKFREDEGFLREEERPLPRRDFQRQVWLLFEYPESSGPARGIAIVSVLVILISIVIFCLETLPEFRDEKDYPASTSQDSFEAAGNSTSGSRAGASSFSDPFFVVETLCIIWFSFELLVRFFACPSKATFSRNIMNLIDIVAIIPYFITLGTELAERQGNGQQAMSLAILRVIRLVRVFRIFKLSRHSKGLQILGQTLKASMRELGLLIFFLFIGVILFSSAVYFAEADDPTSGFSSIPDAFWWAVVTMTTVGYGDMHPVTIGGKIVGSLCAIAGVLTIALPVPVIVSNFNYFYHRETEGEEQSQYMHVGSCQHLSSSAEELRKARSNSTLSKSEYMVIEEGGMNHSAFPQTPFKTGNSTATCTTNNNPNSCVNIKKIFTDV
Nature of the assay: QPatch automated patch-clamp, CHO cells stably expressing human Kv1.3 (Examples 19-21). It is filed as cell-based. The settings on record: huKv1.3, four-point curves of FIG. 32, Table E19; read-out: IC50. The procedure:
The effect of these KnotBodies on cells expressing human Kv1.3 (huKv1.3) channel was assessed using the QPatch automated patch-clamp platform (Sophion, Ballerup, Denmark). For the testing of Kv1.3 ion channel currents, CHO cells stably expressing human Kv1.3 (GenBank accession number NM_002232.2; cell line catalogue number CT6133, Charles River Discovery, Cleveland, USA) were subjected to a QPatch electrophysiology assay in the presence or absence of the KnotBody fusions or the antibody isotypes (negative controls). Internal and external physiological solutions were freshly prepared prior to the assay. The extracellular solution contained 145 mM NaCl, 4 mM KC1, 2 mM CaC12, 1 mM MgC12, 10 mM HEPES and 10 mM glucose; the pH was adjusted to 7.4 with NaOH; the osmolarity was ~ 305 mOsm/L. The intracellular solution contained: KF (120 mM), KC1 (20 mM), HEPES (10 mM) EGTA (10 mM); the pH was adjusted to 7.2 with KOH; osmolarity was ~ 300 mOsm/L.
(§1) A series of depolarising voltage (channel activating) pulses were used to monitor the channel currents upon adding control (extracellular solution) to define a control baseline of current activity. To these measured control currents four, ascending concentrations of KnotBodies (including KB_A12_ShK and KB_A12_KTX as previously described in Example 8) or parental antibody isotypes (control molecules) were applied to the external bathing solution. KnotBodies KB_A12 and KB_A07 (EETI-II fusions) were used as isotype controls for the testing. From a holding voltage of -80 mV a depolarising, activating voltage pulses of +30 mV were applied for 300 ms, every 10 seconds. The elicited, maximum outward current values measured during the activating step for each solution exchange period, averaged (n = 3 - 6 for each concentration applied) and plotted as concentration-response curves (see FIG. 32). From these concentration-response curves IC50 values were calculated.
For the testing of Kv1.1 and Kv1.3, CHO-S expressing huKv1.1 (described above) or CHO cells stably expressing huKv1.3 (Charles River Lab) were analysed using the QPatch electrophysiology assay in the presence or absence of the KnotBody fusions. Internal and external physiological solutions were freshly prepared prior to the assay. The extracellular solution contained 145 mM NaCl, 4 mM KC1, 2 mM CaC12, 1 mM MgC12, 10 mM HEPES and 10 mM glucose; the pH was adjusted to 7.4 with NaOH; the osmolarity was ~ 305 mOsm/L. The intracellular solution contained: KF (120 mM), KC1 (20 mM), HEPES (10 mM) EGTA (10 mM); the pH was adjusted to 7.2 with KOH; osmolarity was ~ 300 mOsm/L.
as §1, with “(including previously described” for “(including”, “KB_A12_KTX” for “KB_A12_KTX as previously”, “[…]” for “+30 mV”, “33).” for “32).”, “calculated (see Table E20).” for “calculated.”
For the testing of Kv1.1 and Kv1.3, CHO-S expressing huKv1.1 (see Example 20 and below) or CHO cells stably expressing huKv1.3 (Charles River Lab) were analysed using the QPatch electrophysiology assay in the presence or absence of the KnotBody fusions - see details in Examples 19 and 20.
In the case of B1, the IC50 was 4.7 nM. On the same count and under the same terms, as for B2, the figure is 270 nM.

The subject of the next assay is trypsin. Nature of the assay: Phage TRF binding assay on immobilised biotinylated trypsin (monoclonal phage ELISA). The conditions noted are these: EETI-II in 5-3 frame, value in brackets after clone name. The procedure:
Phage display technology facilitates isolation of binders to any given target from large combinatorial repertoires based on proteins and peptides that can be presented on the surface of filamentous phage^105. In order to isolate functional knottin-antibody fusions from the KnotBody libraries multiple rounds of phage display selections on trypsin (cognate antigen for the EETI-II donor) were carried out. Phage particles were prepared by rescuing KnotBody libraries using trypsin cleavable helper phage ^102,106Two rounds of phage display selections were performed on 10 µg/ml biotinylated trypsin immobilised on Streptavidin (for Round-1) or Neutravidin (for round-2) coated Maxisorp™ immunotubes (Thermo Scientific, Cat No. 444202). In both rounds of selection, phage libraries were pre-incubated with streptavidin coated paramagnetic beads (Thermo Fisher Scientific, Cat. No. 11205D). These beads were removed prior to the addition the phage to the antigen tubes to limit the streptavidin binders entering the selection. Polyclonal phage preparations from round-2 selection outputs were analysed for trypsin binding using a time resolved fluorescence (TRF) binding assay. In this assay, polyclonal phage binding to biotinylated trypsin immobilised on neutravidin (Thermo Fisher Scientific, Cat. No 31000) coated Maxisorp™ plates (Thermo Scientific, Cat. No. 437111) was detected using a mouse anti-M13 antibody (GE Healthcare, Cat. No. 27-9420-01) followed by europium conjugated anti-mouse antibody (Perkin Elmer, Cat. No. AD0124).
In order to identify monoclonal KnotBodies with desired binding characteristics, 94 individual clones derived from 2 rounds of selection using EETI-II CDR1 or CDR2 libraries were picked into 96 well culture plates and phage were prepared from each clone. Methods for screening by monoclonal phage ELISA are known in the art^107. […] Clones with >3x binding signal above background were picked as positive clones and sequenced to identify unique clones. 14 and 42 unique binders were identified from EETI-II CDR1 and EETI-II CDR2 libraries respectively (Table 1). 18 binders from the EETI-II CDR2 library and 3 binders from the EETI-II-CDR1 library were chosen for further characterisation based on their VL and linker sequence diversity. These binders were assigned new clone identification numbers (Table 2).
The trypsin binding capability of EETI-II is attributed to proline (Pro3) and arginine (Arg4) residues present in its loop1 (GCPRILMRC; SEQ ID NO: 68). […] Monoclonal phage was prepared from the 21 selected clones and their mutant equivalents. […] Replacement of the trypsin-binding residues of EETI-II abolished the ability of all KnotBody clones to bind to trypsin (Table 3). In order to confirm that the loss of trypsin binding was not due to reduced expression or display of pIII fusion phage was prepared from 11 (randomly chosen) KnotBodies and their GlyAla variants were analysed on a western blot using an antibody which recognises the product of gene 3 (pIII) using an anti-pIII antibody (MoBiTec GmbH) (FIG. 6).
Bovine antibodies have been described with natural ultra-long VH CDR3s containing a solvent exposed double stranded antiparallel sheet approximately 20 A° in length (referred to as the stalk) presenting a folded domain stabilised by 3 disulfide bonds (referred to as the Knob)^10. Zhang and colleagues have shown that the Knob domains of these cow ultra-long VH CDR3 antibodies (ULVC-Ab) can be replaced with other folded proteins such as erythropoietin^13. In this example, we assess the ability of a cow ULVC-Ab to present functional knottin fusions on phage in comparison with a KnotBody. In order to create a Knottin-cow UCLA fusion, the sequence between the first and the last cysteines of the knob region of the Cow ULVC-Ab BLV1H12 was replaced with the sequence of the trypsin binding knottin; EETI-II (EETI-II cow ULVC-Ab). A gene fragment encoding this construct was synthesised (Integrated DNA technologies, Table 21). […]
For B3, the “ELISA signal from monoclonal phage ELISA” value is “F07 (72824)”. The same measure, in the same setting: then B4, with “E05 (118631)”; and B5, with “E09 (70274)”; and B6, with “E08 (121047)”. On the same count and under the same terms, as for B7, the entry is “E01 (127988)”.

Turning to B8, the “ELISA signal from monoclonal phage ELISA” value is reported as “F01”. On the same count and under the same terms, as for B9, the entry is “C09 (9820)”. Same read-out and setting: as for B10, the entry is “F03 (67972)”; as for B11, “E03 (82495)”.
